Test results: the supplement of paper PMC7125110
± gives the standard error. Variants at the floor of the assay were thinned out.

B1: glmS ribozyme (parent)
chain: AUAAAAGCGCCAGAACUACAGAAAUGUAGUUGACGAGGAGGAGGUUUAUCGAAUUUUCGGCGGAUGCCUCCAAA

What was measured:
Settings in all cases: with glucosamine-6-phosphate
glucosamine-6-phosphate [1] = variants of: B1; experiment: self-cleavage kobs at 160 uM GlcN6P; higher = faster cleavage; RNA array
How it was run: (§1)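 Glucosamine-6-phosphate (40 μM to 10 mM) in HEPES/KCl/Mg(OAc)2 buffer was flowed over sequenced MiSeq chips, and tiles were imaged over ~14 h. Barcoded ribozyme variants there had been transcribed in situ by E. coli RNA polymerase and were tracked through a hybridised Cy3 probe at 37 °C. One- or two-exponential decay fits to per-tile medians, normalised to baseline and to non-cleaving reference variants, gave kobs. kcat and KM came from weighted Michaelis–Menten fits across concentrations.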

glucosamine-6-phosphate [2] = variants of: B1; experiment: self-cleavage kobs at 640 uM GlcN6P; higher = faster cleavage; RNA array
How it was run: as §1

glucosamine-6-phosphate [3] = variants of: B1; experiment: self-cleavage kobs at 2500 uM GlcN6P; higher = faster cleavage; RNA array
How it was run: as §1

glucosamine-6-phosphate [4] = variants of: B1; experiment: self-cleavage kobs at 10000 uM GlcN6P; higher = faster cleavage; RNA array
How it was run: as §1

Variant	self-cleavage kobs at 160 uM GlcN6P (glucosamine-6-phosphate [1]) [s⁻¹]	self-cleavage kobs at 640 uM GlcN6P (glucosamine-6-phosphate [2]) [s⁻¹]	self-cleavage kobs at 2500 uM GlcN6P (glucosamine-6-phosphate [3]) [s⁻¹]	self-cleavage kobs at 10000 uM GlcN6P (glucosamine-6-phosphate [4]) [s⁻¹]
AUAAAAGCGCCUGAACUACAGAAAUGUAGUUGACGAGGAGGAGGUUUAUCGAAUUUUCGGCGGAUGCCCCCAAA	0.000492 ± 0.00017	0.00151 ± 0.00069	0.00211 ± 0.00066	–
AUAAAGGCGCCAGAACUACAGAAAUGUAGUUGACGAGGAGGAGGUUUAUUGAACUUUCGGCGGAUGCCUCCAAA	< 1e-05	< 1e-05	< 1e-05	–
AUAAAAGCGCCAGAACUACAGAAAUGUAGUUGACGAGGAGGAAGUUUAUCGAAUUUUCGUCGGAUGCCUCCAAA	< 1e-05	< 1e-05	–	< 1e-05
AUAAAAGCGCCAGAACUACAGAAAUGUAGUUGACGAGUAGGAGGUUUAUCGAAUUUUCGUCGGAUGCCUCCAAA	< 1e-05	< 1e-05	–	–
AUAAAAGCGCCACAACUACAGAAAUGUAGUUGACGAGGAGGAGCUUUAUCGAAUUUUCGGAGGAUGCCUCCAAA	< 1e-05	–	–	–
AUAAAAGCCCAAGAAUUACAGAAAUGUAGUUGACCAGGAGGAGGUUUAUCGAACUUUCGGCAGAUGCCUCCAAA	< 1e-05	< 1e-05	–	–
AUAAAAGCGCCAUAACUACAGAAAUGUAGUUGACGGGGAGGAAGUUUAUCGAAUUUUCGGCGGAUCCCUACAAA	< 1e-05	< 1e-05	< 1e-05	–
AUAAAAGCGCAAGAACUACAGAAAUGUAGUUGACGAGGUGGAGGUUUAUCGAAUUUUCGGUGGAUGCCUGCAAA	< 1e-05	< 1e-05	< 1e-05	–
AUAAAAGCGCCCGAAGUACAGAAAUGUAGUUGACGAGGAGGAGGUUUAUCGAAUUUUCGGCGGAUGCCUUCAAA	0.000215 ± 8.1e-05	0.000259 ± 9.1e-05	0.00151 ± 0.00044	–
AUAAAAGCGCAAGAACUACAGAAAUGUAGUUGACGAGGAGUAGGUUUAUCGAAUUUUUGGCGGAUGCCUCCAAA	< 1e-05	< 1e-05	–	–
AUAAAAGCGCUAGAACUACAGAAAUGUAGUUGACGAGGAGGUGGUUUAUCGAAUUUUCGGCGGAUGCAUCCAAA	< 1e-05	–	< 1e-05	–
AUAAAAGCCCCAGAACUACAGAAAUGUAGUUGACGAGGAGGAGGUUUAUCGAAUUAUCGGCGGAUGCCUCCAAA	< 1e-05	< 1e-05	< 1e-05	–
AUAAAAGCGCCAGAACUACAGAAAUGUAGUUGACGAGGAGGAGGUUUCUCCAAUUUUCGGCGGAUGCCUCCAAA	< 1e-05	< 1e-05	–	–
AUAAAAGCGCCACAACUACAGAAAUGUAGUUGACGAGGAGGAGGCCUAUCGAAUUUUCGGCGGAUGCAUGCAAA	< 1e-05	–	< 1e-05	–
AUAAAAGCGCCAGAACUACAGAAAUGUAGUUGACGAGGCGGAGGUUUAUAGUAUUUUCGGCGGAUGCCUCCAAA	< 1e-05	< 1e-05	–	–
AUAAAAGCGCCAGAAGUACAGAAAUGUAGUUGACGAAGAGGAGGUUUUCCGAAUUUUCGGCGGAUGCCUCCAAA	< 1e-05	–	–	–
